Experimental data as given in patent publication US20020009436A1, “Methods and compositions for inhibiting adhesion by microorganisms” (priority 1999, published 2002).

Tested on: S. pyogenes
Assay: Adhesion of S. pyogenes to human buccal cells (light microscopy counts)
Type: cell-based, Streptococcus pyogenes
Protocol: Streptococcus pyogenes strains were grown and pure cultures isolated on blood agar plates at 37° C. Each were subsequently inoculated into brain heart infusion (BHI) nutrient broth at 37° C. for continued growth.
The cells of each S. pyogenes strains were then washed with phosphate buffer (pH 7) three times. The optical density (OD) of each stain was measured using a spectrophotometer, and adjusted to 0.8. One ml of each strain was treated with polyphenol oxidase or asparaginase. The controls and enzyme-supplemental cells were incubated for ninety minutes at 37° C. Each were washed three times for ten minutes at 15,000 rpm, and recollected in 0.9 ml phosphate buffer.
Human buccal cells were collected and cleaned in phosphate buffer. The buccal cells and S. pyogenes were combined in a ratio of 3:1 respectively, for each strain and allowed to incubate 30 min. Buccal cells were removed by centrifugation (500×g) and washed three times to reduce streptococcal background. The buccal cell-streptococcal complexes were then smeared on slides. The resulting slides were stained using the Gram method, and viewed under the 100× oil immersion lens. The number of S. pyogenes for each strain was counted for at least 50 buccal cells.

B1: asparaginase: enzyme that catalyzes hydrolysis of the side chain amide group of asparagine to a carboxyl group; E. coli asparaginase (protein, UniProt P00805 23-348, looked up)
L-asparaginase 2: LPNITILATGGTIAGGGDSATKSNYTVGKVGVENLVNAVPQLKDIANVKGEQVVNIGSQDMNDNVWLTLAKKINTDCDKTDGFVITHGTDTMEETAYFLDLTVKCDKPVVMVGAMRPSTSMSADGPFNLYNAVVTAADKASANRGVLVVMNDTVLDGRDVTKTNTTDVATFKSVNYGPLGYIHNGKIDYQRTPARKHTSDTPFDVSKLNELPKVGIVYNYANASDLPAKALVDAGYDGIVSAGVGNGNLYKSVFDTLATAAKTGTAVVRSSRVPTGATTQDAEVDDAKYGFVASGTLNPQKARVLLQLALTQTKDPQQIQQIFNQY
Percent Inhibition (Strain M4, asparaginase 100 U/ml): 62% | # S. pyogenes buccal cell, Asparaginase (100 U/ml) (Strain M4, asparaginase 100 U/ml, untreated 183): 69 | Percent Inhibition (Strain M12 AC, asparaginase 100 U/ml): 53% | # S. pyogenes buccal cell, Asparaginase (100 U/ml) (Strain M12 AC, asparaginase 100 U/ml, untreated 191): 89 | Percent Inhibition (Strain M14, asparaginase 100 U/ml): 43% | # S. pyogenes buccal cell, Asparaginase (100 U/ml) (Strain M14, asparaginase 100 U/ml, untreated 183): 105 | Percent Inhibition (Strain M14, asparaginase, third line of the strain (line of polyphenol oxidase 300), own concentration not given): 47% | # S. pyogenes buccal cell, Asparaginase (100 U/ml) (Strain M14, asparaginase, third line of the strain (line of polyphenol oxidase 300), own concentration not given, untreated 183): 77 | Percent Inhibition (Strain M15 Lowe, asparaginase 100 U/ml): 23% | # S. pyogenes buccal cell, Asparaginase (100 U/ml) (Strain M15 Lowe, asparaginase 100 U/ml, untreated 120): 93 | Percent Inhibition (Strain M24, asparaginase 100 U/ml): 61% | # S. pyogenes buccal cell, Asparaginase (100 U/ml) (Strain M24, asparaginase 100 U/ml, untreated 142): 55 | Percent Inhibition (Strain M24 VAN, asparaginase 100 U/ml): 48% | # S. pyogenes buccal cell, Asparaginase (100 U/ml) (Strain M24 VAN, asparaginase 100 U/ml, untreated 131): 68 | Percent Inhibition (Strain M+, asparaginase 100 U/ml): 64% | # S. pyogenes buccal cell, Asparaginase (100 U/ml) (Strain M+, asparaginase 100 U/ml, untreated 148): 53
